Data reported in PMC8277577.

Target: C144 (human)
Assay: BLI

SARS-CoV-2 receptor binding domain (RBD) (from UniProt P0DTC2 319-539) (domain or fragment)
Kd: 149 nM
